Drawing on the Human Domainome abundance scans (Beltran et al. 2025), this text covers abundance fitness for 46 variants.

B1: Ubiquitin-protein ligase residues 30 to 86; numbered along this chain, Q05086 (parent)
chain: KHLIERYYHQLTEGCGNEACTNEFCASCPTFLRMDNNAAAIKALELYKINAKLCDPH

± gives the uncertainty stated by the source.

The data set covers variants of B1. Briefly: abundance fitness (aPCA) (normalised: wild type 0, dead -1); higher = more abundant; growth selection in yeast, the domain comes from the species named. Particulars: Homo sapiens.
As for KHLIERYYHQLTEGCGNEACTNEFCASCPTFPRMDNNAAAIKALELYKINAKLCDPH, the abundance fitness turned out to be 0.148 ± 0.14. On to KHLIERYYHQLTEGCGNEACTNEFCASCPTFFRMDNNAAAIKALELYKINAKLCDPH, for which the abundance fitness is -0.239 ± 0.13.

As to KHLIERYYHQLTEGCGNEECTNEFCASCPTFLRMDNNAAAIKALELYKINAKLCDPH, the abundance fitness is 0.004 ± 0.062. Turning to KHLIERYYHQLTEGCGNEACTNEFCASCPTFLRMDNNAAAIKALELYKINAKLCDYH, the abundance fitness was -0.049 ± 0.19. The value for KRLIERYYHQLTEGCGNEACTNEFCASCPTFLRMDNNAAAIKALELYKINAKLCDPH was -0.025 ± 0.052; that for KPLIERYYHQLTEGCGNEACTNEFCASCPTFLRMDNNAAAIKALELYKINAKLCDPH was -0.116 ± 0.077; that for KHLIHRYYHQLTEGCGNEACTNEFCASCPTFLRMDNNAAAIKALELYKINAKLCDPH was -0.04 ± 0.048. The value for KHLIERYYHQLTFGCGNEACTNEFCASCPTFLRMDNNAAAIKALELYKINAKLCDPH was -0.047 ± 0.099; that for KHLIERYYHQLTDGCGNEACTNEFCASCPTFLRMDNNAAAIKALELYKINAKLCDPH was 0.055 ± 0.087; that for KHLIERYYHQLTKGCGNEACTNEFCASCPTFLRMDNNAAAIKALELYKINAKLCDPH was 0.041 ± 0.075. The value for KHLIERYYHQLTEGCGNEACTNEFCATCPTFLRMDNNAAAIKALELYKINAKLCDPH was -0.113 ± 0.072; that for KHLIERYFHQLTEGCGNEACTNEFCASCPTFLRMDNNAAAIKALELYKINAKLCDPH was -0.138 ± 0.1; that for KHLIERYDHQLTEGCGNEACTNEFCASCPTFLRMDNNAAAIKALELYKINAKLCDPH was -0.513 ± 0.096. In the case of KHLIERYYHQDTEGCGNEACTNEFCASCPTFLRMDNNAAAIKALELYKINAKLCDPH, the abundance fitness is -0.834 ± 0.1.

For the variant KHLIERYYHQLTEGCGNEACTNEFCASCPTFLRMDNNAAAIKALEWYKINAKLCDPH, the abundance fitness was -0.401 ± 0.073. The value for KHLIERYYHQLTEGCGNEACTNEFCDSCPTFLRMDNNAAAIKALELYKINAKLCDPH was -0.67 ± 0.09; that for KHLIERYYHQLTEGCGNEACTNEFCCSCPTFLRMDNNAAAIKALELYKINAKLCDPH was -0.053 ± 0.08. The value for KHLIERYYHQLTEGCGNEACTNEFCESCPTFLRMDNNAAAIKALELYKINAKLCDPH was -0.332 ± 0.083; that for KHLIERYYHQLTEGCGNEACTNEFCASCPTFLRMDNNRAAIKALELYKINAKLCDPH was 0.005 ± 0.09; that for KHLIERYYHQLTEGCGNEACTNEFCASCPTFLRMDNNTAAIKALELYKINAKLCDPH was -0.07 ± 0.13. The value for KHLIERYYHQLTEGCGNEACTNEFCASCPTFLRMDNNLAAIKALELYKINAKLCDPH was 0.025 ± 0.095. With KHLIERYYHQLTEGCGNEACTNEFCASCPTFLRMDNNYAAIKALELYKINAKLCDPH, the abundance fitness amounted to 0.08 ± 0.24. Take KHLIERYYHQLTEGCGNEACTNEFCASCPTFLIMDNNAAAIKALELYKINAKLCDPH: the abundance fitness is -0.1 ± 0.15. With KHLIERYYHQLTEGCGNEACTNEFCASCPTFLDMDNNAAAIKALELYKINAKLCDPH, the abundance fitness was -0.245 ± 0.13. The figure for KHLIERYYHQLTEGCGNEACTNEFCASCPTFLHMDNNAAAIKALELYKINAKLCDPH is -0.109 ± 0.17; for KHLIEVYYHQLTEGCGNEACTNEFCASCPTFLRMDNNAAAIKALELYKINAKLCDPH it is -0.044 ± 0.051; for KHLIEKYYHQLTEGCGNEACTNEFCASCPTFLRMDNNAAAIKALELYKINAKLCDPH it is 0.029 ± 0.054. The value for KHLIEMYYHQLTEGCGNEACTNEFCASCPTFLRMDNNAAAIKALELYKINAKLCDPH was -0.079 ± 0.054; that for KHLIERYYHQLTEGCNNEACTNEFCASCPTFLRMDNNAAAIKALELYKINAKLCDPH was -0.061 ± 0.12; that for KHLIERYYHQLTEGCGNEACTNEFCASCPTFLRMDNNAAAIKALELYKINAKLCFPH was -0.06 ± 0.097. The value for KHLIERYYHQLTEGCGNEACTNEFCASCPTFLRMDNNAAAIKALELYKINAKLCIPH was -0.149 ± 0.098; that for KHLIERYYHGLTEGCGNEACTNEFCASCPTFLRMDNNAAAIKALELYKINAKLCDPH was -0.311 ± 0.052. As for KHLIERYYHWLTEGCGNEACTNEFCASCPTFLRMDNNAAAIKALELYKINAKLCDPH, the abundance fitness was -0.765 ± 0.079. The value for KHLIERYYHVLTEGCGNEACTNEFCASCPTFLRMDNNAAAIKALELYKINAKLCDPH was -0.253 ± 0.052.

Regarding KHLIERYYHFLTEGCGNEACTNEFCASCPTFLRMDNNAAAIKALELYKINAKLCDPH, the abundance fitness is -0.329 ± 0.099. The value for KHLIERYYHQLTEGCGNEASTNEFCASCPTFLRMDNNAAAIKALELYKINAKLCDPH was -0.821 ± 0.078; that for KHLIERYYHQLTEGCGNEAYTNEFCASCPTFLRMDNNAAAIKALELYKINAKLCDPH was -0.717 ± 0.36.

In the case of KHLIERYYHQLTEGCGNEAQTNEFCASCPTFLRMDNNAAAIKALELYKINAKLCDPH, the abundance fitness is -0.893 ± 0.37. The figure for KHLIERYYHQLTEGCGNEACTMEFCASCPTFLRMDNNAAAIKALELYKINAKLCDPH is -0.478 ± 0.073; for KHLIERYYHQLTEGCGNEACTEEFCASCPTFLRMDNNAAAIKALELYKINAKLCDPH it is -0.236 ± 0.072. The figure for KHLIERYYHQLTEGCGNEACTNEFCASCPTELRMDNNAAAIKALELYKINAKLCDPH is -0.124 ± 0.083; for KHLIERYYHQLTEGCGNEACTNEFCASCPTHLRMDNNAAAIKALELYKINAKLCDPH it is -0.013 ± 0.16; for KHLIERYYHQLTEGCGNEACTNEFCASCPTFLRMDNNAAAIVALELYKINAKLCDPH it is -0.392 ± 0.059. The figure for KHLIERYYHQLTEGCGNEACTNEFCASCPTFLRMDNNAAAHKALELYKINAKLCDPH is 0.064 ± 0.084; for KHLIERYYHQLTEGCGNEACTNEFCASCPTFLRMDNNAAARKALELYKINAKLCDPH it is 0 ± 0.047.

On to KHLIERYYHQLTEGCGNEACTNEFCASCPTFLRMDNNAAASKALELYKINAKLCDPH, for which the abundance fitness was found to be 0.035 ± 0.052.
